First the molecules themselves.
B1: Keratin-associated protein 3-2 (Homo sapiens), Q9BYR7 (parent)
chain: MDCCASRSCSVPTGPATTICSSDKSCRCGVCLPSTCPHTVWLLEPICCDNCPPPCHIPQPCVPTCFLLNSCQPTPGLETLNLTTFTQPCCEPCLPRGC
B2: E3 ubiquitin-protein ligase Midline-1 (Homo sapiens), O15344 (parent)
chain: METLESELTCPICLELFEDPLLLPCAHSLCFNCAHRILVSHCATNESVESITAFQCPTCRHVITLSQRGLDGLKRNVTLQNIIDRFQKASVSGPNSPSETRRERAFDANTMTSAEKVLCQFCDQDPAQDAVKTCVTCEVSYCDECLKATHPNKKPFTGHRLIEPIPDSHIRGLMCLEHEDEKVNMYCVTDDQLICALCKLVGRHRDHQVAALSERYDKLKQNLESNLTNLIKRNTELETLLAKLIQTCQHVEVNASRQEAKLTEECDLLIEIIQQRRQIIGTKIKEGKVMRLRKLAQQIANCKQCIERSASLISQAEHSLKENDHARFLQTAKNITERVSMATASSQVLIPEINLNDTFDTFALDFSREKKLLECLDYLTAPNPPTIREELCTASYDTITVHWTSDDEFSVVSYELQYTIFTGQANVVSLCNSADSWMIVPNIKQNHYTVHGLQSGTKYIFMVKAINQAGSRSSEPGKLKTNSQPFKLDPKSAHRKLKVSHDNLTVERDESSSKKSHTPERFTSQGSYGVAGNVFIDSGRHYWEVVISGSTWYAIGLAYKSAPKHEWIGKNSASWALCRCNNNWVVRHNSKEIPIEPAPHLRRVGILLDYDNGSIAFYDALNSIHLYTFDVAFAQPVCPTFTVWNKCLTIITGLPIPDHLDCTEQLP
partner: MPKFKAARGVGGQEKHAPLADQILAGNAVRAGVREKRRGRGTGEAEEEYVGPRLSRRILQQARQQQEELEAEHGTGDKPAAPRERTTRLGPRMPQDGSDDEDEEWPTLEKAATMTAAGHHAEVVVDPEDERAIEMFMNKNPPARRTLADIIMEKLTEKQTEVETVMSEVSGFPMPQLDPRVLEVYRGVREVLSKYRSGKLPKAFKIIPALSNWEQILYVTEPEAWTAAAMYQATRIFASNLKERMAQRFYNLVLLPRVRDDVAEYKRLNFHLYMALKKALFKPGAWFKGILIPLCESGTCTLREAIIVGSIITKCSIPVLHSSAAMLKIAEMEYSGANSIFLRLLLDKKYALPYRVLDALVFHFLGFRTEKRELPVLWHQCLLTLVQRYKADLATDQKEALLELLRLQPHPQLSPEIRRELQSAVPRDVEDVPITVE
B3: Tuftelin-interacting protein 11 (Homo sapiens), Q9UBB9 (parent)
chain: MSLSHLYRDGEGRIDDDDDERENFEITDWDLQNEFNPNRQRHWQTKEEATYGVWAERDSDDERPSFGGKRARDYSAPVNFISAGLKKGAAEEAELEDSDDEEKPVKQDDFPKDFGPRKLKTGGNFKPSQKGFAGGTKSFMDFGSWERHTKGIGQKLLQKMGYVPGRGLGKNAQGIINPIEAKQRKGKGAVGAYGSERTTQSMQDFPVVDSEEEAEEEFQKELSQWRKDPSGSKKKPKYSYKTVEELKAKGRISKKLTAPQKELSQVKVIDMTGREQKVYYSYSQISHKHNVPDDGLPLQSQQLPQSGKEAKAPGFALPELEHNLQLLIDLTEQEIIQNDRQLQYERDMVVNLFHELEKMTEVLDHEERVISNLSKVLEMVEECERRMQPDCSNPLTLDECARIFETLQDKYYEEYRMSDRVDLAVAIVYPLMKEYFKEWDPLKDCTYGTEIISKWKSLLENDQLLSHGGQDLSADAFHRLIWEVWMPFVRNIVTQWQPRNCDPMVDFLDSWVHIIPVWILDNILDQLIFPKLQKEVENWNPLTDTVPIHSWIHPWLPLMQARLEPLYSPIRSKLSSALQKWHPSDSSAKLILQPWKDVFTPGSWEAFMVKNIVPKLGMCLGELVINPHQQHMDAFYWVIDWEGMISVSSLVGLLEKHFFPKWLQVLCSWLSNSPNYEEITKWYLGWKSMFSDQVLAHPSVKDKFNEALDIMNRAVSSNVGAYMQPGARENIAYLTHTERRKDFQYEAMQERREAENMAQRGIGVAASSVPMNFKDLIETKAEEHNIVFMPVIGKRHEGKQLYTFGRIVIYIDRGVVFVQGEKTWVPTSLQSLIDMAK
partner: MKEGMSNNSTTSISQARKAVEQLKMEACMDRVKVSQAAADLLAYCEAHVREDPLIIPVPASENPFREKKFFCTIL
B4: Tyrosine-protein phosphatase non-receptor type 9 (Homo sapiens), P43378 (parent)
chain: MEPATAPRPDMAPELTPEEEQATKQFLEEINKWTVQYNVSPLSWNVAVKFLMARKFDVLRAIELFHSYRETRRKEGIVKLKPHEEPLRSEILSGKFTILNVRDPTGASIALFTARLHHPHKSVQHVVLQALFYLLDRAVDSFETQRNGLVFIYDMCGSNYANFELDLGKKVLNLLKGAFPARLKKVLIVGAPIWFRVPYSIISLLLKDKVRERIQILKTSEVTQHLPRECLPENLGGYVKIDLATWNFQFLPQVNGHPDPFDEIILFSLPPALDWDSVHVPGPHAMTIQELVDYVNARQKQGIYEEYEDIRRENPVGTFHCSMSPGNLEKNRYGDVPCLDQTRVKLTKRSGHTQTDYINASFMDGYKQKNAYIGTQGPLENTYRDFWLMVWEQKVLVIVMTTRFEEGGRRKCGQYWPLEKDSRIRFGFLTVTNLGVENMNHYKKTTLEIHNTEERQKRQVTHFQFLSWPDYGVPSSAASLIDFLRVVRNQQSLAVSNMGARSKGQCPEPPIVVHCSAGIGRTGTFCSLDICLAQLEELGTLNVFQTVSRMRTQRAFSIQTPEQYYFCYKAILEFAEKEGMVSSGQNLLAVESQ
partner: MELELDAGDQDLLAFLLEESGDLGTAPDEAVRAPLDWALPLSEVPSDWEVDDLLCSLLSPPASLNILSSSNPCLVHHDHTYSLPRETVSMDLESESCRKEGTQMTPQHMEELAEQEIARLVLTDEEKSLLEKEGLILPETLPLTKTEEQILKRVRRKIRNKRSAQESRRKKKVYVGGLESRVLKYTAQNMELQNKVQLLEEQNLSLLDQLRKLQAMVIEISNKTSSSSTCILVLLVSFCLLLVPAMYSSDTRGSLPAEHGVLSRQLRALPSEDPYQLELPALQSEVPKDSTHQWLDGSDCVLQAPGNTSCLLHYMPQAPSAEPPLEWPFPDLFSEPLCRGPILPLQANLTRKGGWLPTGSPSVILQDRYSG
B5: Ribonuclease P protein subunit p30 (Homo sapiens), P78346 (parent)
chain: MAVFADLDLRAGSDLKALRGLVETAAHLGYSVVAINHIVDFKEKKQEIEKPVAVSELFTTLPIVQGKSRPIKILTRLTIIVSDPSHCNVLRATSSRARLYDVVAVFPKTEKLFHIACTHLDVDLVCITVTEKLPFYFKRPPINVAIDRGLAFELVYSPAIKDSTMRRYTISSALNLMQICKGKNVIISSAAERPLEIRGPYDVANLGLLFGLSESDAKAAVSTNCRAALLHGETRKTAFGIISTVKKPRPSEGDEDCLPASKKAKCEG
B6: Phosphoserine phosphatase (Homo sapiens), P78330 (parent)
chain: MVSHSELRKLFYSADAVCFDVDSTVIREEGIDELAKICGVEDAVSEMTRRAMGGAVPFKAALTERLALIQPSREQVQRLIAEQPPHLTPGIRELVSRLQERNVQVFLISGGFRSIVEHVASKLNIPATNVFANRLKFYFNGEYAGFDETQPTAESGGKGKVIKLLKEKFHFKKIIMIGDGATDMEACPPADAFIGFGGNVIRQQVKDNAKWYITDFVELLGELEE
partner: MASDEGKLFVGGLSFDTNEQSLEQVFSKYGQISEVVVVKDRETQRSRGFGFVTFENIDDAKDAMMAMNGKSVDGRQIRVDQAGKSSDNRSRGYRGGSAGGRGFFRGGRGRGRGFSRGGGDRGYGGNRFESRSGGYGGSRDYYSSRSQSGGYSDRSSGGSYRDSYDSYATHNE

The first test covers variants of B1. The settings on record: with yipf3_human YIPF3, Q9GZM5.
Chain of yipf3_human YIPF3, Q9GZM5 (Q9GZM5 whole entry): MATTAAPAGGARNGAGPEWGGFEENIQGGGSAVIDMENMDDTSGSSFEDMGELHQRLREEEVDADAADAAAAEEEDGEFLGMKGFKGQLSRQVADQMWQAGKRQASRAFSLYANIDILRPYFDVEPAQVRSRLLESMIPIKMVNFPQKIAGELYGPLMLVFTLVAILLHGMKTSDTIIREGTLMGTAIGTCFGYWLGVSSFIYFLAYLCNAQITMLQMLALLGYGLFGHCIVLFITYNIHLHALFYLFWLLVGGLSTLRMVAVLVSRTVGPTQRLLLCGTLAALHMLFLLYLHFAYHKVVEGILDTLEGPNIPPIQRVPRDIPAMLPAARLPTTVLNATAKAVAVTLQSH
Turning to MDCCASRSCSVPTGPATTICSSDKSCCCGVCLPSTCPHTVWLLEPICCDNCPPPCHIPQPCVPTCFLLNSCQPTPGLETLNLTTFTQPCCEPCLPRGC [R27C], the “effect of a mutation on the interaction” value is listed as “with no effect”.

A further test covers variants of B1. Particulars: with hxa1_human HOXA1, P49639.
Chain of hxa1_human HOXA1, P49639 (P49639 whole entry): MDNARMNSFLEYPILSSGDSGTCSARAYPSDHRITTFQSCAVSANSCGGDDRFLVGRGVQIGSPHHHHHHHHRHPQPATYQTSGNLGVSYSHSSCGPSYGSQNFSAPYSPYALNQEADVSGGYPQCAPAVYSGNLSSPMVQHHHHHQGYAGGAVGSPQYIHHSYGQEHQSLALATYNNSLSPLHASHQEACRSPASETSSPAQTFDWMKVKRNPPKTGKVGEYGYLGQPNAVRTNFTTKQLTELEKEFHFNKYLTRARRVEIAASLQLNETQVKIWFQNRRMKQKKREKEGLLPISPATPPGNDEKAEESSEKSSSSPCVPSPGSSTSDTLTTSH
With MDCCASRSCSVPTGPATTICSSDKSCCCGVCLPSTCPHTVWLLEPICCDNCPPPCHIPQPCVPTCFLLNSCQPTPGLETLNLTTFTQPCCEPCLPRGC [R27C], the “effect of a mutation on the interaction” value was “with no effect”.

A further test covers variants of B1. Particulars: with otx1_human OTX1, P32242.
Chain of otx1_human OTX1, P32242 (P32242 whole entry): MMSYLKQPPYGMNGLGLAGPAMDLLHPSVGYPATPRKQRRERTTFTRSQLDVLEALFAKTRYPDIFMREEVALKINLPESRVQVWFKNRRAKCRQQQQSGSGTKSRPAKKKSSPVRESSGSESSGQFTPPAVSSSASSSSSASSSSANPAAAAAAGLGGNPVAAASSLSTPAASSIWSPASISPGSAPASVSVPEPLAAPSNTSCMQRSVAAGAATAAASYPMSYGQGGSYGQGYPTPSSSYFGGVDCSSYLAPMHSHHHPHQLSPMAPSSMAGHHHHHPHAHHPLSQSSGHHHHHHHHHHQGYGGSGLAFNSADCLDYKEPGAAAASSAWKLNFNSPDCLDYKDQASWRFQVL
On to MDCCASRSCSVPTGPATTICSSDKSCCCGVCLPSTCPHTVWLLEPICCDNCPPPCHIPQPCVPTCFLLNSCQPTPGLETLNLTTFTQPCCEPCLPRGC [R27C], for which the “effect of a mutation on the interaction” value is on record as “with no effect”.

The variants in another test derive from B2. Particulars: with byst_human BYSL.
For D84N, the “effect of a mutation on the interaction” value is “disrupting interaction strength”.

The variants in a further test derive from B3. Particulars: with gbg4_human GNG4, P50150.
Take S688L: the “effect of a mutation on the interaction” value is recorded as “with no effect”.
In the case of R8Q, the “effect of a mutation on the interaction” value is “with no effect”.

The variants in a further test derive from B4. The settings on record: with creb3_human CREB3, O43889.
MEPATAPRPDMAPELTPEEEQATKQFLEEINKWTVQYNVSPLSWNVAVKFLMARKFDVLRAIELFHSYRETQRKEGIVKLKPHEEPLRSEILSGKFTILNVRDPTGASIALFTARLHHPHKSVQHVVLQALFYLLDRAVDSFETQRNGLVFIYDMCGSNYANFELDLGKKVLNLLKGAFPARLKKVLIVGAPIWFRVPYSIISLLLKDKVRERIQILKTSEVTQHLPRECLPENLGGYVKIDLATWNFQFLPQVNGHPDPFDEIILFSLPPALDWDSVHVPGPHAMTIQELVDYVNARQKQGIYEEYEDIRRENPVGTFHCSMSPGNLEKNRYGDVPCLDQTRVKLTKRSGHTQTDYINASFMDGYKQKNAYIGTQGPLENTYRDFWLMVWEQKVLVIVMTTRFEEGGRRKCGQYWPLEKDSRIRFGFLTVTNLGVENMNHYKKTTLEIHNTEERQKRQVTHFQFLSWPDYGVPSSAASLIDFLRVVRNQQSLAVSNMGARSKGQCPEPPIVVHCSAGIGRTGTFCSLDICLAQLEELGTLNVFQTVSRMRTQRAFSIQTPEQYYFCYKAILEFAEKEGMVSSGQNLLAVESQ [R72Q]: the “effect of a mutation on the interaction” value was “with no effect”.

Variants of B5 are the subject of a further test. The settings on record: with hm20a_human HMG20A.
Regarding MAVFADLDLRADSDLKALRGLVETAAHLGYSVVAINHIVDFKEKKQEIEKPVAVSELFTTLPIVQGKSRPIKILTRLTIIVSDPSHCNVLRATSSRARLYDVVAVFPKTEKLFHIACTHLDVDLVCITVTEKLPFYFKRPPINVAIDRGLAFELVYSPAIKDSTMRRYTISSALNLMQICKGKNVIISSAAERPLEIRGPYDVANLGLLFGLSESDAKAAVSTNCRAALLHGETRKTAFGIISTVKKPRPSEGDEDCLPASKKAKCEG [G12D], the “effect of a mutation on the interaction” value was “with no effect”.

The variants in a further test derive from B6. The settings on record: with cirbp_human CIRBP.
With MVSHSELRKLFYSADAVCFDVDSTVIREEGIDELAKICGVEDAVSEMTRRAMGGAVPFKAALTERLALIQPSREQVQRLIAEQPPHLTPGIRELVSRLQERNVQVFLISGGFRSIVEHVASKLNIPATNVFANRLKFYFNGEYAGFDEMQPTAESGGKGKVIKLLKEKFHFKKIIMIGDGATDMEACPPADAFIGFGGNVIRQQVKDNAKWYITDFVELLGELEE [T149M], the “effect of a mutation on the interaction” value was “with no effect”.
The same measure, in the same setting: the result for MVSHSELRKLFYSADAVCFDVDSTVIREEGIDELAKICGVEDAVSEMTRRAMGGAVPFKAALTERLALIQPSREQVQRLIAEQPPHLTPGIRELVSRLQERNVQVFLISGGFRSIVEHVASKLNIPATNVFANRLKFYFNGEYAGFDETQPIAESGGKGKVIKLLKEKFHFKKIIMIGDGATDMEACPPADAFIGFGGNVIRQQVKDNAKWYITDFVELLGELEE [T152I] reads “with no effect”.

The values above are taken from IntAct's records for PubMed 31515488.
